Test results published in CN116507641A.

Columns and labels:
[1] = target: 人结合素-4 (full-length human Nectin-4 on cells) (human) (UniProt Q96NY8); assay: FACS competition: antibody titrated against biotinylated human Nectin-1-His (competitor, 0.75 ug/ml) on CHO-Nectin-4 cells
[2] = target: 人重组结合素-4蛋白 (recombinant human Nectin-4, extracellular domain) (human) (UniProt Q96NY8); assay: ELISA, recombinant human Nectin-4 coated on plate
Sequence of 人重组结合素-4蛋白 (recombinant human Nectin-4, extracellular domain) (human) (Q96NY8 32-349): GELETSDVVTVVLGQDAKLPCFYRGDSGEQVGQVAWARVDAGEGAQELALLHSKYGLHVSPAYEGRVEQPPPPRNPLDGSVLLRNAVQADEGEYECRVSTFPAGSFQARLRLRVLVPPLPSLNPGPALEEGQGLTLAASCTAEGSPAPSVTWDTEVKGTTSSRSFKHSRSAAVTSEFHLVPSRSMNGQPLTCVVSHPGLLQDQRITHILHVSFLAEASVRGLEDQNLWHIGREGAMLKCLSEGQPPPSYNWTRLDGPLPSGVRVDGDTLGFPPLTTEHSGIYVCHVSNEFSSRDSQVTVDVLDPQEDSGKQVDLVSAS

Sequence of 人结合素-4 (full-length human Nectin-4 on cells) (human) (Q96NY8 32-510): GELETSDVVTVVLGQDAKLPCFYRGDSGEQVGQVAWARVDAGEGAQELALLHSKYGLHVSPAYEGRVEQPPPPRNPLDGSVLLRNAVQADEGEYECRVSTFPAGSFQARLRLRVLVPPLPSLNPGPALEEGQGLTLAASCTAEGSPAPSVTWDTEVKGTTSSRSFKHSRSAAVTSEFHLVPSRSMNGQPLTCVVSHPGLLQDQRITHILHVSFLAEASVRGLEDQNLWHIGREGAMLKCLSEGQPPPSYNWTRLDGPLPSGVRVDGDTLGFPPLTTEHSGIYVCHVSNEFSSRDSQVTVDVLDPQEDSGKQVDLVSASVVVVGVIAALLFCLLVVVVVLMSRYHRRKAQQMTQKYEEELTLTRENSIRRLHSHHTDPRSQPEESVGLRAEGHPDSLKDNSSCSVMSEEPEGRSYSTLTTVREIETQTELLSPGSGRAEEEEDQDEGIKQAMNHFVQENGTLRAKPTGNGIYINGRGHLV

Substance “阳性对照1 (PC1), in-house Nectin-4-specific antibody based on enfortumab antibody (AGS-22M6)” has an EC50 [1] of 0.16 nM and an EC50 [2] of 0.34 nM.
